From patent US20230322924A1 (Janssen / Centocor, published 2023) come the findings set out here.

For the assay, the target named is T1, human CD33, full length, on cells (human, UniProt P20138 18-364).
T1 construct: SH2 and OCIAML3 carry SNP rs12459419 (hetero-/homozygous), which leads to a form without the V domain; also called Human CD33 (HEK293F transfectants); CD33 on AML cell lines KG1, SH2, OCIAML3
The experiment in a line: flow cytometry on CD33 expressing HEK293F cells. The procedure: OMNIRat antibodies identified via immunization, v-region cloned and subsequently expressed and purified were characterized further for binding to CD33 expressing cells and binding to recombinant antigens. The purified antibodies were assessed for binding to stably transfected HEK293F cells expressing human CD33 or cyno CD33 (generation described above) along with the parental HEK293F as negative control. Cells were harvested from tissue culture flasks using non-enzymatic dissociation buffer (Thermo Scientific). The flasks were rinsed twice with PBS and dissociation buffer was added to the flask, and the flask was incubated for 10 minutes at 37° C. until the cells became non-adherent. The cells were centrifuged at 300 g for 5 minutes and resuspended at 1.0×10⁶ cells/ml in staining buffer (Becton Dickinson; Franklin Lakes, NJ). 50,000 cells/well of each cell type was plated in 50 μl of staining buffer in round bottom plates (Becton Dickinson). […] 30 μl running buffer containing Sytox Green live/dead dye (ThermoFisher) was added to all wells with cells and the plates were read on an iQue IntelliCyt flow cytometer. […] Antibody binding was assessed by the mean fluorescence intensity in the AF647 channel.
For orientation: Flow cytometry measures light scatter and fluorescence of single cells or particles in a stream.

T1 sequence (P20138 18-364 limits assumed): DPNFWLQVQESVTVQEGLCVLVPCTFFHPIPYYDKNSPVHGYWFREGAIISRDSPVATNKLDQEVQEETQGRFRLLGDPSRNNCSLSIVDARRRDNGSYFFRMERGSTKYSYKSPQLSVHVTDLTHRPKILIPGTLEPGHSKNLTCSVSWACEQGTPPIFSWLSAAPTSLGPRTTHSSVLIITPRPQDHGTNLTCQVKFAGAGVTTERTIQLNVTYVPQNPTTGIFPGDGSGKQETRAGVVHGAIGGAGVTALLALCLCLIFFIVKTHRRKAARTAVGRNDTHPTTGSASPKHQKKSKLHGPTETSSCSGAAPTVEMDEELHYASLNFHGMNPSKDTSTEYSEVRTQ

B1: C33B909 (antibody, V domains shown)
VH: EVQLVESGGGLVQPGRSLRLSCVASGFTFDDYAIHWVRQAPGKGLEWVSGLSWNGGNIGYADSVKGRFTISRDNAKNSLYLQMNSLKTEDTAFYYCTKDTPYGDYFDYWGQGTLVTVSS
VL: DIQMTQSPSSVWASVGDRVTITCRASQGISSWLAWYQQQPGKAPNLLIYRSSSLQSGVPSRFSGSGSGTDFTLTISSLQPEDFATYYCQQDNSFPYTFGQGTKLEIK
notes: OmniMouse clone; also called C33H249/C33L115
In the case of B1, the binding result is on record as “no binding (tested: 60 nM highest tested)”.
